In doi:10.1101/859132 (bioRxiv, 2019):
Substitutions are numbered along the chain they refer to.

Columns and labels:
Assay in all cases: pull-down
Maf1-id L318S/W319S = target: T1, Maf1-id L318S/W319S (S. cerevisiae, UniProt P41910 1-395, Δ64-194 | L318S | W319S)
T1 sequence (looked up): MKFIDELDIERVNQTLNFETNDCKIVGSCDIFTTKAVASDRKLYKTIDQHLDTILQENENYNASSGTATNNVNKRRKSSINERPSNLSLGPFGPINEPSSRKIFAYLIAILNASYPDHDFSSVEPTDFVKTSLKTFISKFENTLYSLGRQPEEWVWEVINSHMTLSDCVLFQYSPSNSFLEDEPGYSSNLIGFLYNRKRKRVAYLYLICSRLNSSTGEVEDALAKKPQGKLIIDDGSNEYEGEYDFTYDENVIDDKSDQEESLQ

Maf1-id T33E/T34E = target: T2, Maf1-id T33E/T34E (S. cerevisiae, UniProt P41910 1-395, Δ64-194 | T33E | T34E)
T2 sequence (looked up): T1 sequence (looked up) with T33E, T34E, S187L, S188W

Maf1-id D248A/D250A = target: T3, Maf1-id D248A/D250A (S. cerevisiae, UniProt P41910 1-395, Δ64-194 | D248A | D250A)
T3 sequence (looked up): T1 sequence (looked up) with D117A, D119A, S187L, S188W

Maf1-id (Maf1 Δ64-194) = target: T4, Maf1-id (Maf1 Δ64-194) (S. cerevisiae, UniProt P41910 1-395, Δ64-194)
T4 sequence (looked up): T1 sequence (looked up) with S187L, S188W

Measured: binding result

B1: C34 1-156 (the two N-terminal C34 WH domains), His-tagged (domain or fragment, S. cerevisiae, UniProt P32910 1-156, looked up)
chain: MSGMIENGLQLSDNAKTLHSQMMSKGIGALFTQQELQKQMGIGSLTDLMSIVQELLDKNLIKLVKQNDELKFQGVLESEAQKKATMSAEEALVYSYIEASGREGIWSKTIKARTNLHQHVVLKCLKSLESQRYVKSVKSVKFPTRKIYMLYSLQPS
binds: all assays above
